Assay results from patent US20030049259A1.

Molecular target: E-cadherin (human) (UniProt P12830)
Assay: cell-based or functional assay

Sequence of UniProt P12830 (P12830 155-882): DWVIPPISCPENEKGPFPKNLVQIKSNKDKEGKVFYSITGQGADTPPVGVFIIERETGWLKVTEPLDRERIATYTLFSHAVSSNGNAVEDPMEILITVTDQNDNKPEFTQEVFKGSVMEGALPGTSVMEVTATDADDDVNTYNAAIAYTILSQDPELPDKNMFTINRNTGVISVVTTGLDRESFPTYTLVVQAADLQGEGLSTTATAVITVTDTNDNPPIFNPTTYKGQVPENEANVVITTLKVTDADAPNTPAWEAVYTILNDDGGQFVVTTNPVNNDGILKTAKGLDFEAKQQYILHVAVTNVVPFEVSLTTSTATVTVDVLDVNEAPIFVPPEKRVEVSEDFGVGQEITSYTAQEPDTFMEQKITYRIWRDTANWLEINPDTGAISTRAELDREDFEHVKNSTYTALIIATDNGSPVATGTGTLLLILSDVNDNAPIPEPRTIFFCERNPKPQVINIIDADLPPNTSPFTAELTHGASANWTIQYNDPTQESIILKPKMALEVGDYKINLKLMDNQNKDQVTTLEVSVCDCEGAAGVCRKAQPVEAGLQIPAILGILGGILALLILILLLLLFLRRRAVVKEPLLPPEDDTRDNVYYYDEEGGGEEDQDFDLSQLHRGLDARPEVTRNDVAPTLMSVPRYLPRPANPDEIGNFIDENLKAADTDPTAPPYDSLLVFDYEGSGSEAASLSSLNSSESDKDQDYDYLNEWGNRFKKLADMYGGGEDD

In the case of “E4.6 (mouse anti-human E-cadherin, IgG1) (antibody)”, the blocking of ilEL binding to 16E6.A5 monolayers in 1 mM Ca2+, Mg2+ and Mn2+ (FIG. 3A) is reported as 55% and the blocking of ilEL binding to 16E6.A5 monolayers in the absence of Ca2+ and Mn2+ (FIG. 3B) is reported as 0%.
